The assay deals with Sulfolobus solfataricus RNA polymerase (S. solfataricus).

“Sulfolobus solfataricus TFS4 (from UniProt Q97X43 1-92) (natural protein)” returned a transcription elongation assay on a synthetic scaffold: excess of TFS1 over TFS4 needed for 50% relief of the inhibition by TFS4 (fold excess of TFS1 over TFS4) of 2.

For the origin of these results see article PMC5715097.
